Assay [1] concerns the target HLA-B*08:01. Put plainly: IEDB peptide-MHC binding, purified MHC/direct/fluorescence; filed as Kd, often an IC50 or EC50 that approximates it; ≥ and ≤ were set here for values at or beyond the usual limits of such assays. The conditions noted are these: source organism: Vibrio cholerae V52.
The target in a further assay is HLA-C*07:02. The description is as above.
The target in the next assay is HLA-C*03:03. Described as above. The conditions noted are these: source organism: Yersinia pestis Nepal516.
In a further assay the target is HLA-C*05:01. Described as above. The note with it: source organism: Yersinia pestis Nepal516.
The next assay has as its target HLA-C*12:03. The assay is described as above. The conditions noted are these: source organism: Yersinia pestis Nepal516.
The next assay addresses HLA-A*02:01. Put plainly: IEDB peptide-MHC binding, purified MHC/competitive/fluorescence; filed as Kd, often an IC50 or EC50 that approximates it; ≥ and ≤ were set here for values at or beyond the usual limits of such assays.
Assay [2] deals with HLA-B*15:01. Described as above.
The target in the next assay is HLA-B*35:01. The description is as above. The conditions noted are these: source organism: Yersinia pestis Nepal516.
A further assay concerns the target HLA-B*39:01. The description is as above.
Assay [3] concerns the target HLA-B*51:01. The description is as above.
A further assay concerns the target HLA-A*01:01. The assay is described as follows: IEDB peptide-MHC binding, purified MHC/direct/fluorescence; filed as Kd, often an IC50 or EC50 that approximates it; ≥ and ≤ were set here for values at or beyond the usual limits of such assays. The note with it: source organism: Cowpox virus.
In assay [4] the target is HLA-A*03:01. The description is as above. The note with it: source organism: Cowpox virus.
The target of a further assay is HLA-A*11:01. Described as above. The conditions noted are these: source organism: Cowpox virus.
The target of the next assay is HLA-A*31:01. The description is as above. The conditions noted are these: source organism: Cowpox virus.
The next assay deals with HLA-B*07:02. The assay is described as above. The note with it: source organism: Cowpox virus.
Assay [5] addresses HLA-B*15:01. The description is as above. The conditions noted are these: source organism: Cowpox virus.
The target of the next assay is HLA-B*15:17. The description is as above. The conditions noted are these: source organism: Cowpox virus.
The target in assay [6] is HLA-B*18:01. Described as above. The conditions noted are these: source organism: Cowpox virus.
The next assay has as its target HLA-B*27:05. The description is as above. The conditions noted are these: source organism: Cowpox virus.
The target of a further assay is HLA-B*40:01. The description is as above. The note with it: source organism: Cowpox virus.
Assay [7] addresses HLA-B*46:01. Described as above. The conditions noted are these: source organism: Cowpox virus.
A further assay concerns the target HLA-B*48:01. The assay is described as above. The note with it: source organism: Cowpox virus.
The target of assay [8] is HLA-B*51:01. The description is as above. The note with it: source organism: Cowpox virus.
Assay [9] deals with HLA-B*57:01. Described as above. The note with it: source organism: Cowpox virus.
In a further assay the target is HLA-B*58:01. The assay is described as above. The conditions noted are these: source organism: Cowpox virus.
The target of a further assay is HLA-A*02:03. Put plainly: IEDB peptide-MHC binding, purified MHC/competitive/fluorescence; filed as Kd, often an IC50 or EC50 that approximates it; ≥ and ≤ were set here for values at or beyond the usual limits of such assays.
The target in the next assay is HLA-A*02:06. The description is as above. The note with it: source organism: Vaccinia virus Copenhagen.
The target in a further assay is HLA-A*26:01. The assay is described as above.
Another assay concerns the target HLA-A*69:01. Described as above. The note with it: source organism: Vaccinia virus Copenhagen.
In assay [10] the target is HLA-B*08:01. Described as above.
Another assay addresses HLA-B*15:42. The assay is described as above. The note with it: source organism: Vaccinia virus Copenhagen.
The target of a further assay is HLA-B*45:06. The description is as above. The note with it: source organism: Vaccinia virus Copenhagen.
The target of the next assay is HLA-B*83:01. The assay is described as above. The conditions noted are these: source organism: Vaccinia virus Copenhagen.
A further assay concerns the target HLA-A*02:12. The assay is described as above. The conditions noted are these: source organism: Vibrio parahaemolyticus RIMD 2210633.
A further assay concerns the target HLA-A*02:19. The description is as above. The note with it: source organism: Vibrio parahaemolyticus RIMD 2210633.
For assay [11], the target named is HLA-A*03:01. Described as above. The note with it: source organism: Vibrio parahaemolyticus RIMD 2210633.
A further assay addresses HLA-A*29:02. The assay is described as above. The conditions noted are these: source organism: Vibrio parahaemolyticus RIMD 2210633.
The target in another assay is HLA-A*68:02. Described as above. The conditions noted are these: source organism: Vibrio parahaemolyticus RIMD 2210633.
Assay [12] concerns the target HLA-B*18:01. Described as above. The conditions noted are these: source organism: Vibrio parahaemolyticus RIMD 2210633.
In the next assay the target is HLA-B*27:03. The description is as above. The conditions noted are these: source organism: Vibrio parahaemolyticus RIMD 2210633.
Assay [13] concerns the target HLA-B*46:01. The assay is described as above. The note with it: source organism: Vibrio parahaemolyticus RIMD 2210633.
For assay [14], the target named is HLA-B*57:01. Described as above. The conditions noted are these: source organism: Vibrio parahaemolyticus RIMD 2210633.
Where [15] appears, read: source organism: Yersinia pestis Nepal516.
Where [16] appears, read: source organism: Vaccinia virus Copenhagen.
[17] abbreviates: source organism: Vibrio parahaemolyticus RIMD 2210633.
Where [18] appears, read: source organism: Salmonella enterica subsp. enterica serovar Typhi.

In general, Kd refers to the equilibrium constant for the complex coming apart. Higher therefore signals a looser complex. As to FIRWRFYLL, the equilibrium dissociation constant (Kd) with HLA-B*08:01 [1] was 0.216 µM; with HLA-C*07:02 (source organism: Vibrio cholerae 2740-80) it was 4.08 µM.
Consider FAFKLSFAI, for which the Kd is 0.004 µM with HLA-C*03:03; not below 20 µM with HLA-C*05:01; not below 20 µM with HLA-C*07:02 (setting [15]); not above 0.001 µM with HLA-C*12:03; 1.01 µM with HLA-A*02:01 (setting [15]); not below 20 µM with HLA-B*15:01 [2] (setting [15]). The dissociation constant (Kd) with HLA-B*35:01 was 0.065 µM; with HLA-B*39:01 (setting [15]) it was 3 µM; with HLA-B*51:01 [3] (setting [15]), not below 20 µM.
With YPPPRYITV, the Kd with HLA-A*01:01 was not below 20 µM; with HLA-A*03:01 [4] it was not below 20 µM; in the assay with HLA-A*11:01, not below 20 µM; in the assay with HLA-A*31:01, not below 20 µM; in the assay with HLA-B*07:02, 0.113 µM; in the assay with HLA-B*15:01 [5], not below 20 µM. Besides, the equilibrium dissociation constant (Kd) with HLA-B*15:17, in the assay with HLA-B*18:01 [6], with HLA-B*27:05, in the assay with HLA-B*40:01, in the assay with HLA-B*46:01 [7] and with HLA-B*48:01 was not below 20 µM in each case. Further, the Kd with HLA-B*51:01 [8] is 0.179 µM; with HLA-B*57:01 [9], not below 20 µM; with HLA-B*58:01, not below 20 µM; in the assay with HLA-A*02:01 (setting [16]) it was 0.106 µM; with HLA-A*02:03 (setting [16]) it was 0.239 µM; with HLA-A*02:06, 0.0114 µM. Moreover, the Kd was not below 20 µM with HLA-A*26:01 (setting [16]); 0.0681 µM with HLA-A*69:01; 0.543 µM with HLA-B*08:01 [10] (setting [16]); not below 5 µM with HLA-B*15:42; 3.58 µM in the assay with HLA-B*39:01 (setting [16]); not below 5 µM with HLA-B*45:06. This sequence also registered a Kd with HLA-B*83:01 not below 5 µM.
As to HVIYFTAFT, the dissociation constant (Kd) with HLA-A*02:01 (setting [17]), with HLA-A*02:03 (setting [17]), with HLA-A*02:12, with HLA-A*02:19, in the assay with HLA-A*03:01 [11] and with HLA-A*26:01 (setting [17]) was not below 20 µM throughout. Also, the equilibrium dissociation constant (Kd) with HLA-A*29:02 is not below 20 µM; with HLA-A*68:02, 0.0577 µM; with HLA-B*15:01 [2] (setting [17]), not below 20 µM; with HLA-B*18:01 [12], not below 20 µM; in the assay with HLA-B*27:03, not below 20 µM; with HLA-B*39:01 (setting [17]), not below 20 µM. Further, the dissociation constant Kd in the assay with HLA-B*46:01 [13], in the assay with HLA-B*51:01 [3] (setting [17]) and with HLA-B*57:01 [14] was not below 20 µM throughout.
For the sequence MMLSPLVAL, the equilibrium dissociation constant (Kd) worked out at 0.858 µM with HLA-C*07:02 (source organism: Salmonella enterica subsp. enterica serovar Typhi str. CT18), 0.0002 µM with HLA-A*02:01 (setting [18]), 0.96 µM with HLA-B*08:01 [10] (setting [18]) and 0.0008 µM with HLA-B*39:01 (setting [18]).

The record behind these values is the Immune Epitope Database (IEDB).
